± gives the uncertainty stated by the source.
Experiment: self-splicing fitness, log relative to wild type (ln ratio); higher = more splicing; Tetrahymena group I intron in knt gene, E. coli kanamycin selection, DiMSum; sequences stand for … in CUCUCU…GGAGGGAAAAGUUAUCAGGCAUGCACCUGGUAGCUAGUCUUUAAACCAAUAGAUUGCAUCGGUUUAAAAGGCAAGACCGUCAAAUUGCGGGAAAGGGGUCAACAGCCGUUCAGUACCAAGUCUCAGGGGAAACUUUGAGAUGGCCUUGCAAAGGGUAUGGUAAUAAGCUGACGGACAUGGUCCUAACCACGCAGCCAAGUCCUAAGUCAACAGAUCUUCUGUUGAUAUGGAUGCAGUUCACAGACUAAAUGUCGGUCGGGGAAGAUGUAUUCUUCUCAUAAGAUAUAGUCGGACCUCUCCUUAAUGGGAGCUAGCGGAUGAAGUGAUGCAACACUGGAGCCGCUGGGAACUAAUUUGUAUGCGAAAGUAUAUUGAUUAGUUUUGGAGUACUCGUGGUCG
Method in brief: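 Pooled colonies went to amplicon sequencing on an Illumina HiSeq 2500 after six replicate transformations. The plates were LB agar with 100 μg/mL carbenicillin, 50 μM IPTG and 0.2% rhamnose, with or without 25 μg/mL kanamycin, incubated overnight at 37°C or 30°C. The E. coli BL21(DE3) library had all eight P1ex-region intron nucleotides randomised, the intron placed in the knt kanamycin-resistance gene on pET-22b(+). DiMSum fitness is the error-weighted combination of replicate fold changes, kanamycin against none, normalised to wild type.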

Sequence	self-splicing fitness (ln) (30 °C)	self-splicing fitness (ln) (37 °C)
UUAUAGCAAUAUUACGCCUA	-1.55 ± 0.15	0.273 ± 0.2
UUAUAGCAAUAUUACGCGCA	-1.06 ± 0.19	-0.728 ± 0.2
UUAUAGCAAUAUUACGCGUA	-0.829 ± 0.14	-1.17 ± 0.14
UUAUAGCAAUAUUACGGAAC	-3.09 ± 0.36	-1.71 ± 0.44
UUAUAGCAAUAUUACGGAGA	-2.04 ± 0.27	-1.89 ± 0.32
UUAUAGCAAUAUUACGGCCA	-1.18 ± 0.31	-0.579 ± 0.33
UUAUAGCAAUAUUACGGCUA	-0.836 ± 0.15	-0.316 ± 0.14
UUAUAGCAAUAUUACGGCUC	-2.3 ± 0.26	-0.637 ± 0.26
UUAUAGCAAUAUUACGGGGC	-2.88 ± 0.34	–
UUAUAGCAAUAUUACGUACC	-3.97 ± 0.31	-3.01 ± 0.3
UUAUAGCAAUAUUACGUAUC	-3.79 ± 0.31	-3.04 ± 0.32
UUAUAGCAAUAUUACGUAUU	–	-2.08 ± 0.25
UUAUAGCAAUAUUACGUCAU	–	-2.98 ± 0.37
UUAUAGCAAUAUUACGUCUU	-3.35 ± 0.3	-0.948 ± 0.17
UUAUAGCAAUAUUACGUGCG	-1.06 ± 0.15	-0.395 ± 0.17
UUAUAGCAAUAUUACGUGCU	-2.75 ± 0.16	-1.91 ± 0.14
UUAUAGCAAUAUUACGUUCA	-0.931 ± 0.15	0.00672 ± 0.15
UUCAAGCAAUAUUACGAAUA	-2.07 ± 0.18	-0.837 ± 0.12
UUCAAGCAAUAUUACGACGC	-1.27 ± 0.19	-1.14 ± 0.26
UUCAAGCAAUAUUACGAGAA	-1.84 ± 0.3	-1.61 ± 0.37
UUCAAGCAAUAUUACGAGGC	-1.97 ± 0.21	-1.76 ± 0.23
UUCAAGCAAUAUUACGAGUU	-2.6 ± 0.12	-0.389 ± 0.099
UUCAAGCAAUAUUACGCACC	–	-1.68 ± 0.49
UUCAAGCAAUAUUACGGAAU	–	-2.57 ± 0.23
UUCAAGCAAUAUUACGGACU	-2.76 ± 0.17	-0.504 ± 0.13

Sequence	self-splicing fitness (ln) (30 °C)	self-splicing fitness (ln) (37 °C)
UUCAAGCAAUAUUACGGUUU	-3.08 ± 0.21	-1.84 ± 0.17
UUCAAGCAAUAUUACGUAAG	-1.89 ± 0.074	-0.866 ± 0.077
UUCAAGCAAUAUUACGUAGA	-1.5 ± 0.094	-0.928 ± 0.14
UUCAAGCAAUAUUACGUAUC	-4.16 ± 0.24	-1.85 ± 0.16
UUCAAGCAAUAUUACGUCCG	-1.33 ± 0.095	-0.121 ± 0.14
UUCAAGCAAUAUUACGUUCA	-0.938 ± 0.077	-0.12 ± 0.077
UUCCAGCAAUAUUACGAAUG	-3.59 ± 0.19	-1.75 ± 0.15
UUCCAGCAAUAUUACGAAUU	-3.98 ± 0.18	-2.05 ± 0.14
UUCCAGCAAUAUUACGACAG	-1.39 ± 0.17	-0.449 ± 0.18
UUCCAGCAAUAUUACGCGGG	-3.83 ± 0.29	-2.69 ± 0.29
UUCCAGCAAUAUUACGCUGC	-3.79 ± 0.28	-2.09 ± 0.4
UUCCAGCAAUAUUACGGAGA	-1.83 ± 0.084	-0.628 ± 0.081
UUCCAGCAAUAUUACGGCCC	-2.34 ± 0.38	–
UUCCAGCAAUAUUACGGCUA	0.12 ± 0.12	-0.25 ± 0.1
UUCCAGCAAUAUUACGGGAG	-3.38 ± 0.16	-1.77 ± 0.14
UUCCAGCAAUAUUACGGGUG	-0.109 ± 0.058	-0.15 ± 0.076
UUCCAGCAAUAUUACGUACA	-1.11 ± 0.1	-0.862 ± 0.12
UUCCAGCAAUAUUACGUCAG	-1.75 ± 0.077	-1.19 ± 0.097
UUCCAGCAAUAUUACGUCCG	-2.28 ± 0.18	0.24 ± 0.2
UUCCAGCAAUAUUACGUCUG	-2.71 ± 0.15	-2.28 ± 0.24
UUCCAGCAAUAUUACGUCUU	-2.64 ± 0.15	-2.27 ± 0.2
UUCCAGCAAUAUUACGUGGA	-3.28 ± 0.24	-2.95 ± 0.26
UUCCAGCAAUAUUACGUUUA	-0.628 ± 0.083	-0.59 ± 0.075
UUCGAGCAAUAUUACGACCA	-2.28 ± 0.43	-1.33 ± 0.28

From the supplement of paper PMC7877785
